The results in this text go back to patent publication US20110300138A1 (published 2011).

Assay [1] concerns the target full length wild type human TSHR (human) (UniProt P16473). Description: TSHR260-AP bridge ELISA, wild type TSHR on wells; IgG at 1 µg/mL in HBD. (In general: In an ELISA, binding on a coated surface is turned into a signal by an enzyme label.)
The target is the same in assay [2]. Briefly: TSHR260-AP bridge ELISA, wild type TSHR on wells; IgG at 0.05 µg/mL in HBD.
Assay [3] addresses TSHR260-alkaline phosphatase (TSHR260-AP) (human) (UniProt P05187). Briefly: TSHR260-AP bridge ELISA, full length TSHR on wells; 0.005 µg/mL, diluted in assay buffer.
For assay [4], the target named is full length wild type human TSHR (human) (UniProt P16473). Briefly: TSHR260-AP bridge ELISA, wild type TSHR on wells; IgG at 0.005 µg/mL in HBD.
The target in assay [5] is TSH receptor (TSHR), full length human, coated on tubes (human) (UniProt P16473). Description: inhibition of 125I-TSH binding to TSHR coated tubes; 0.01 µg/mL, diluted in HBD serum pool.
Assay [6] concerns the target full length wild type human TSHR (human) (UniProt P16473). Briefly: TSHR260-AP bridge ELISA, wild type TSHR on wells; IgG at 0.01 µg/mL in HBD.
Assay [7] deals with TSHR260-alkaline phosphatase (TSHR260-AP) (human) (UniProt P05187). Briefly: TSHR260-AP bridge ELISA, full length TSHR on wells; 0.005 µg/mL, diluted in HBD.
For assay [8], the target named is human thyroid stimulating hormone receptor (TSHR), full length (human) (UniProt P16473). Briefly: 125I-K1-70 Fab (competitor) binding to TSHR coated tubes; test sample 10 µg/mL in HBD serum.
Assay [9] addresses human TSHR (thyroid stimulating hormone receptor) expressed in transfected CHO cells (human) (UniProt P16473). Briefly: cell-based or functional assay.
Assay [10] concerns the target human thyroid stimulating hormone receptor (TSHR), full length (human) (UniProt P16473). Briefly: 125I-K1-70 Fab (competitor) binding to TSHR coated tubes; test sample 1 µg/mL in HBD serum.
Assay [11] addresses TSH receptor (TSHR), full length human, coated on tubes (human) (UniProt P16473). Briefly: inhibition of 125I-TSH binding to TSHR coated tubes; 1 µg/mL, diluted in assay buffer.
Assay [12] addresses thyroid stimulating hormone receptor (full length human TSHR) (human) (UniProt P16473). Description: ELISA, inhibition of TSH-biotin binding to TSHR coated wells; 100 µg/mL, diluted in HBD serum pool.
Assay [13] concerns the target human thyroid stimulating hormone receptor (TSHR), full length (human) (UniProt P16473). Briefly: 125I-K1-70 Fab (competitor) binding to TSHR coated tubes; test sample 0.1 µg/mL in HBD serum.
Assay [14] shares this target. Description: 125I-K1-70 Fab (competitor) binding to TSHR coated tubes; test sample 0.01 µg/mL in assay buffer.
Assay [15] has as its target thyroid stimulating hormone receptor (TSHR), full length, coated on tubes (human) (UniProt P16473). Description: inhibition of 125I-TSH binding, TSHR coated tubes; antibody 100 µg/mL in HBD serum pool.
Assay [16] has the same target. Briefly: inhibition of 125I-TSH binding, TSHR coated tubes; antibody 100 µg/mL in assay buffer.
Assay [17] has as its target human thyroid stimulating hormone receptor (TSHR), full length (human) (UniProt P16473). Description: 125I-K1-70 Fab (competitor) binding to TSHR coated tubes; test sample 0.01 µg/mL in HBD serum.
In assay [18] the target is thyroid stimulating hormone receptor (TSHR), full length, coated on tubes (human) (UniProt P16473). Description: inhibition of 125I-TSH binding, TSHR coated tubes; antibody 10 µg/mL in HBD serum pool.

Turning to M22 IgG (antibody), the Mean absorbance at 405 nm (absorbance at 405 nm) is 1.17 in [1]; 0.332 in assay [2]; 0.075 in assay [3]; 0.032 in assay [4]; 0.064 in [6]; 0.045 in [7]. Moreover, in assay [5], the Inhibition of binding (%) was -0.3%.

Consider 9D33 IgG (antibody), for which the Mean absorbance at 405 nm (absorbance at 405 nm) in assay [1] was found to be 0.329; in [2], 0.056; in [4], 0.006; in [6], 0.011. Moreover, the Inhibition of binding (%) in [8] is 47.7%; in assay [10], 38.8%; in assay [11] it was 50.9%; in [12] it was 84%; in assay [13], 12.7%; in [14], 5%. Also, the Inhibition of binding (%) in assay [15] was 67.4%; in assay [5], 3.6%; in assay [16] it was 75.6%; in assay [17], -1.2%; in [18], 60.5%. Moreover, the % Inhibition; 10 ng/mL K1-18 IgG + 0.001 µg/mL 9D33 IgG in assay [9] was 3%. In [9], the % Inhibition; 10 ng/mL K1-18 IgG + 0.01 µg/mL 9D33 IgG was 15%. In addition, the % Inhibition; 10 ng/mL K1-18 IgG + 0.1 µg/mL 9D33 IgG in [9] turned out to be 86%. Also, the % Inhibition; 10 ng/mL K1-18 IgG + 1 µg/mL 9D33 IgG in [9] was 95%. Besides, the % Inhibition; 10 ng/mL K1-18 IgG + 10 µg/mL 9D33 IgG in [9] was determined as 95%. The % Inhibition; 10 ng/mL K1-18 IgG + 100 µg/mL 9D33 IgG in assay [9] worked out at 94%. In addition, in assay [9], the Cyclic AMP concentration; 10 ng/mL K1-18 IgG + 0.001 µg/mL 9D33 IgG was determined as 35.8 pmol/mL. The Cyclic AMP concentration; 10 ng/mL K1-18 IgG + 0.01 µg/mL 9D33 IgG in [9] was determined as 31.3 pmol/mL. The Cyclic AMP concentration; 10 ng/mL K1-18 IgG + 0.1 µg/mL 9D33 IgG in assay [9] stood at 5.3 pmol/mL. Moreover, the Cyclic AMP concentration; 10 ng/mL K1-18 IgG + 1 µg/mL 9D33 IgG in [9] stood at 1.9 pmol/mL. Also, the Cyclic AMP concentration; 10 ng/mL K1-18 IgG + 10 µg/mL 9D33 IgG in [9] worked out at 1.9 pmol/mL. Also, in assay [9], the Cyclic AMP concentration; 10 ng/mL K1-18 IgG + 100 µg/mL 9D33 IgG came to 2.2 pmol/mL. In assay [9], this molecule had a Cyclic AMP concentration; 100 µg/mL 9D33 IgG of 2 pmol/mL.

B1: 5C9 IgG (antibody, from another filing, V domains shown)
VH: EVQLVESGGGLIQPGGSLRLSCAASGFTVSSNYMSWVRQAPGKGLEWVSVTYSGGSTSYADSVKGRFTISRDNSKNTLYLQMNSLRAEDTAVYYCARGGRYCSSISCYARSGCDYWGQGTLVTVSS
VL: AIQMTQSPSSLSASVGDRVTITCRASQSISNYLNWYQQKPGKAPKLLIYAASSLQSGVPSRFSGSGSGTDFTLTISSLQPEDFATYYCQQSYSSPSTTFGQGTKLEIK
B1: the Inhibition of binding (%) in assay [8] is 20.7%; in assay [10], 8.1%; in assay [12], 37.1%; in assay [13], 6%; in [14] it was 10.9%; in assay [15], 35.3%. Moreover, the Inhibition of binding (%) in assay [16] is 82.9%; in assay [17] it was -4.4%; in [18], 40.9%. For the same molecule, the values for the Mean absorbance at 405 nm (absorbance at 405 nm) in assay [3] and in assay [7] were -0.009 and 0.02, respectively.
